Assay results published in patent US20190060473A1, “HSP90 INHIBITOR DRUG CONJUGATES” (priority 2016, published 2019).
Read-outs that look alike come from different tables or passages of the source.

Experiments:
[1] = system: HER2 expression in BT-474 human breast cancer cells; experiment: In-Cell Western assay (ICW) for HER2 expression in BT-474 cells; assay type: cell-based
Method: The HDCs as described herein were used in various experiments to determine their activity and properties, such as binding affinity and stability in blood. An in-Cell Western assay (ICW) for HER2 expression was carried out in BT-474 human breast cancer cells. BT-474 cells were seeded in 96-well plates at a density of 20,000 cells per well. Twenty-four hours after plating, cells were dosed with graded concentrations of HDCs using 3-fold serial dilutions and incubated for 24 h. Growth media containing drug was aspirated off. Cells were then fixed in 4% paraformaldehyde for 20 min and washed three times in 0.1% Triton X-100. After blocking for 1.5 h in Odyssey Blocking Buffer (LI-COR, Lincoln, Nebr., USA), cells were incubated with primary HER2 antibody overnight at 4° C. Wells were washed three times with 0.1% Tween-20 and incubated in secondary antibody (LI-COR, Lincoln, Nebr., USA) and DRAQ5 (CST, Beverly, Mass., USA) for 1 h. Following 3 final washes with 0.1% Tween-20, antibody-antigen complexes were visualized using the Odyssey system. For quantification, HER2 signal was normalized to DRAQ5 flourescent probe.

[2] = Metabolic stability in mouse whole blood (LC-MS/MS); assay type: in vitro ADME; details: for Mouse blood stability 1 h (% remaining): 10 μM
Method: Metabolic stability of various HDCs was tested in mouse blood. All compounds were tested at a concentration of 10 μM. The time dependent disappearance of test compound in mouse whole blood, and the release of the compound qualitatively as determined by liquid chromatography tandem mass spectrometry (LC-MS/MS), was tested at time points of 15 minutes, 30 minutes, 45 minutes and 1 hour. All compounds were tested in duplicate, and the average was taken. The results in Table 2 show the percent of test compound remaining after 1 hour.

[3] = BT-474 cells, 24 h incubation, 3-fold serial dilutions, HER2 signal normalized to DRAQ5, read-out: HER2 (ICW)
[4] = mouse whole blood, percent of test compound remaining after 1 hour, average of duplicate

SMILES | IC50 [1, 3] [nM] | Mouse blood stability 1 h (% remaining) [2, 4] [%] | also measured
CC(C)Nc1cc(-c2c[nH]c(C(=O)N[C@H](COC(=O)C3(NC(=O)CCn4ccc5cc(-n6c(O)nnc6-c6cc(C(C)C)c(O)cc6O)ccc54)CC3)c3cccc(Cl)c3)c2)c(Cl)cn1 [SDC-TRAP-0508, (S)-2-(4-(5-chloro-2-(isopropylamino)pyridin-4-yl)-1H-pyrrole-2-carboxamido)-2-(3-chlorophenyl)ethyl 1-(3-(5-(3-(2,4-dihydroxy-5-isopropylphenyl)-5-hydroxy-4H-1,2,4-triazol-4-yl)-1H-indol-1-yl)propanamido)cyclopropanecarboxylate] | 2330 | – | Mouse blood stability 1 h (% remaining) ([2]; mouse, blood, 1 h): 32.4%
CCNC(=O)c1nnc(-c2cc(C(C)C)c(O)cc2O)n1-c1ccc(N(C)C2CCN(C(=O)CCC(=O)OC[C@H](O)Cn3cnc4c(c(Nc5ccc(I)cc5F)c(F)c(=O)n4C)c3=O)CC2)nc1 [SDC-TRAP-0525, (R)-3-(6-fluoro-5-((2-fluoro-4-iodophenyl)amino)-8-methyl-4,7-dioxo-7,8-dihydropyrido[2,3-d]pyrimidin-3(4H)-yl)-2-hydroxypropyl 4-(4-((5-(3-(2,4-dihydroxy-5-isopropylphenyl)-5-(ethylcarbamoyl)-4H-1,2,4-triazol-4-yl)pyridin-2-yl)(methyl)amino)piperidin-1-yl)-4-oxobutanoate] | – | 10.8 | –
CC(C)Nc1cc(-c2c[nH]c(C(=O)N[C@H](COC(=O)C3CCN(Cc4ccc(-n5c(O)nnc5-c5cc(C(C)C)c(O)cc5O)cc4F)CC3)c3cccc(Cl)c3)c2)c(Cl)cn1 [SDC-TRAP-0517, (S)-2-(4-(5-chloro-2-(isopropylamino)pyridin-4-yl)-1H-pyrrole-2-carboxamido)-2-(3-chlorophenyl)ethyl 1-(4-(3-(2,4-dihydroxy-5-isopropylphenyl)-5-hydroxy-4H-1,2,4-triazol-4-yl)-2-fluorobenzyl)piperidine-4-carboxylate] | 202 | – | –
CCNC(=O)c1nnc(-c2cc(C(C)C)c(O)cc2O)n1-c1ccc(CN2CCC(C(=O)NC(C)(C)C(=O)OC[C@@H](NC(=O)c3cc(-c4cc(NC(C)C)ncc4Cl)c[nH]3)c3cccc(Cl)c3)CC2)c(F)c1 [SDC-TRAP-0514, (S)-2-(4-(5-chloro-2-(isopropylamino)pyridin-4-yl)-1H-pyrrole-2-carboxamido)-2-(3-chlorophenyl)ethyl 2-(1-(4-(3-(2,4-dihydroxy-5-isopropylphenyl)-5-(ethylcarbamoyl)-4H-1,2,4-triazol-4-yl)-2-fluorobenzyl)piperidine-4-carboxamido)-2-methylpropanoate] | 345 | 105 | –
CCNC(=O)c1nnc(-c2cc(C(C)C)c(O)cc2O)n1-c1ccc(CN2CCC(C(=O)NC3(C(=O)OC[C@@H](NC(=O)c4cc(-c5cc(NC(C)C)ncc5Cl)c[nH]4)c4cccc(Cl)c4)CC3)CC2)c(F)c1 [SDC-TRAP-0507, (S)-2-(4-(5-chloro-2-(isopropylamino)pyridin-4-yl)-1H-pyrrole-2-carboxamido)-2-(3-chlorophenyl)ethyl-(1-(4-(3-(2,4-dihydroxy-5-isopropylphenyl)-5-(ethylcarbamoyl)-4H-1,2,4-triazol-4-yl)-2-fluorobenzyl)piperidine-4-carboxamido)cyclopropanecarboxylate] | 304 | 105 | –
CCNC(=O)c1nnc(-c2cc(C(C)C)c(O)cc2O)n1-c1ccc(CN2CCC(C(=O)OC[C@@H](NC(=O)c3cc(-c4cc(NC(C)C)ncc4Cl)c[nH]3)c3cccc(Cl)c3)CC2)c(F)c1 [SDC-TRAP-0518, (S)-2-(4-(5-chloro-2-(isopropylamino)pyridin-4-yl)-1H-pyrrole-2-carboxamido)-2-(3-chlorophenyl)ethyl 1-(4-(3-(2,4-dihydroxy-5-isopropylphenyl)-5-(ethylcarbamoyl)-4H-1,2,4-triazol-4-yl)-2-fluorobenzyl)piperidine-4-carboxylate] | 104 | – | –
CC(C)c1cc(-c2nnc(O)n2-c2ccc(CN3CCC(C(=O)N4CC[C@H](C(=O)OC[C@H](O)Cn5cnc6c(c(Nc7ccc(I)cc7F)c(F)c(=O)n6C)c5=O)C4)CC3)c(F)c2)c(O)cc1O [SDC-TRAP-0528] | – | 0 | –
CCNC(=O)c1nnc(-c2cc(C(C)C)c(O)cc2O)n1-c1ccc(C(=O)N[C@H](C(=O)N[C@@H](CC(C)C)C(=O)N(C)[C@@H](C(=O)N[C@H](C(=O)N(C)C([C@@H](C)CC)[C@@H](CC(=O)N2CCC[C@@H]2[C@@H](OC)[C@@H](C)C(=O)N[C@@H](C)[C@H](O)c2ccccc2)OC)C(C)C)C(C)C)C(C)C)cc1 (stereo partly drawn) [SDC-TRAP-0538, 4-(4-(((3R,7S,10R,13S,16S)-4-((S)-sec-butyl)-3-(2-((R)-2-((1S,2R)-3-(((1R,2S)-1-hydroxy-1-phenylpropan-2-yl)amino)-1-methoxy-2-methyl-3-oxopropyl)pyrrolidin-1-yl)-2-oxoethyl)-13-isobutyl-7,10-diisopropyl-5,11,17-trimethyl-6,9,12,15-tetraoxo-2-oxa-5,8,11,14-tetraazaoctadecan-16-yl)carbamoyl)phenyl)-5-(2,4-dihydroxy-5-isopropylphenyl)-N-ethyl-4H-1,2,4-triazole-3-carboxamide] | – | – | remaining at 1 h, 10 μM [2, 4]: 118%
CC(C)c1cc(-c2n[nH]c(=O)n2-c2ccc3c(ccn3C)c2)c(O)cc1O [ganetespib, reference compound] | – | – | IC50 ([1]; Homo sapiens, BT-474, 24 h, read-out: HER2 (ICW, nM)): 37 nM
CC(C)Nc1cc(-c2c[nH]c(C(=O)N[C@H](COC(=O)[C@@H](C)NC(=O)C3CCN(Cc4ccc(-n5c(O)nnc5-c5cc(C(C)C)c(O)cc5O)cc4F)CC3)c3cccc(Cl)c3)c2)c(Cl)cn1 [SDC-TRAP-0519] | 1650 | – | –
CCNC(=O)c1nnc(-c2cc(C(C)C)c(O)cc2O)n1-c1ccc(C(=O)N[C@@H](CC(C)C)C(=O)N[C@@H](CC(C)C)C(=O)N(C)[C@@H](C(=O)N[C@H](C(=O)N(C)C([C@@H](C)CC)[C@@H](CC(=O)N2CCC[C@@H]2[C@@H](OC)[C@@H](C)C(=O)N[C@@H](C)[C@H](O)c2ccccc2)OC)C(C)C)C(C)C)cc1 (stereo partly drawn) [SDC-TRAP-0539, 4-(4-(((3R,7S,10R,13S,16S)-4-((S)-sec-butyl)-3-(2-((R)-2-((1S,2R)-3-(((1R,2S)-1-hydroxy-1-phenylpropan-2-yl)amino)-1-methoxy-2-methyl-3-oxopropyl)pyrrolidin-1-yl)-2-oxoethyl)-13-isobutyl-7,10-diisopropyl-5,11,18-trimethyl-6,9,12,15-tetraoxo-2-oxa-5,8,11,14-tetraazanonadecan-16-yl)carbamoyl)phenyl)-5-(2,4-dihydroxy-5-isopropylphenyl)-N-ethyl-4H-1,2,4-triazole-3-carboxamide] | – | – | remaining at 1 h, 10 μM [2, 4]: 106%
CCNC(=O)c1nnc(-c2cc(C(C)C)c(O)cc2O)n1-c1ccc(C(=O)N[C@H](C(=O)N[C@@H](CCCNC(N)=O)C(=O)N(C)[C@@H](C(=O)N[C@H](C(=O)N(C)C([C@@H](C)CC)[C@@H](CC(=O)N2CCC[C@@H]2[C@@H](OC)[C@@H](C)C(=O)N[C@@H](C)[C@H](O)c2ccccc2)OC)C(C)C)C(C)C)C(C)C)cc1 (stereo partly drawn) [SDC-TRAP-0540, 4-(4-(((3R,7S,10R,13S,16S)-4-((S)-sec-butyl)-3-(2-((R)-2-((1S,2R)-3-(((1R,2S)-1-hydroxy-1-phenylpropan-2-yl)amino)-1-methoxy-2-methyl-3-oxopropyl)pyrrolidin-1-yl)-2-oxoethyl)-7,10-diisopropyl-5,11,17-trimethyl-6,9,12,15-tetraoxo-13-(3-ureidopropyl)-2-oxa-5,8,11,14-tetraazaoctadecan-16-yl)carbamoyl)phenyl)-5-(2,4-dihydroxy-5-isopropylphenyl)-N-ethyl-4H-1,2,4-triazole-3-carboxamide] | – | – | remaining at 1 h, 10 μM [2, 4]: 55.5%
